Columns and labels:
212579 H113HY (human) = assay: SPR; Biacore 1K+; antibody 212579 H113HY captured from culture supernatant without prior purification on anti-human IgG (Fc) on a CM5 chip; Phl p 5 injected at 1.875-60 nM; PBS with 0.02% Tween 20; 1:1 Langmuir model
[1] = molecular target: 212579 T40HN, I53HV (human); assay: SPR; Biacore 1K+; purified IgG captured (about 100 RU) on anti-human IgG (Fc) on a CM5 chip; Phl p 5 injected at 1.875-60 nM, 25 uL/min, 120 s, 1360 s dissociation; PBS with 0.02% Tween 20; 1:1 Langmuir model
212579 G62HS (human) = assay: as above
[2] = molecular target: 212579 I53HV, I29LV, T40LA, V108LG (human); assay: as above
[3] = molecular target: 212579 I29LV, T40LA, V108LG (human); assay: as above
[4] = molecular target: 212579 T40HN, I53HV, H113HY (human); assay: as above
212579 I53HV (human) = assay: as above
[5] = molecular target: 212579 T40HN, I29LV, T40LA, V108LG (human); assay: as above
212579 E38HS (human) = assay: as above
212579 T40HN (human) = assay: as above

- Kd (212579 H113HY (human)): 1.4 nM
- koff (212579 H113HY (human)): 0.00036 s⁻¹
- kon (212579 H113HY (human)): 260000 M⁻¹ s⁻¹
- Kd [1]: 0.56 nM
- koff [1]: 0.00014 s⁻¹
- Kd (212579 G62HS (human)): 0.27 nM
- koff (212579 G62HS (human)): 0.00011 s⁻¹
- kon (212579 G62HS (human)): 420000 M⁻¹ s⁻¹
- Kd [2]: 1.5 nM
- koff [2]: 0.00033 s⁻¹
- kon [2]: 220000 M⁻¹ s⁻¹
- Kd [3]: 1.5 nM
- koff [3]: 0.00035 s⁻¹
- kon [3]: 230000 M⁻¹ s⁻¹
- Kd [4]: 0.92 nM
- koff [4]: 0.00014 s⁻¹
- kon [4]: 160000 M⁻¹ s⁻¹
- Kd (212579 I53HV (human)): 0.31 nM
- koff (212579 I53HV (human)): 0.00013 s⁻¹
- kon (212579 I53HV (human)): 420000 M⁻¹ s⁻¹
- Kd [5]: 4.3 nM
- koff [5]: 0.0005 s⁻¹
- kon [5]: 120000 M⁻¹ s⁻¹
- Kd (212579 E38HS (human)): 9.9 nM
- koff (212579 E38HS (human)): 0.00273 s⁻¹
- kon (212579 E38HS (human)): 280000 M⁻¹ s⁻¹
- Kd (212579 T40HN (human)): 0.49 nM
- koff (212579 T40HN (human)): 0.00016 s⁻¹
- kon (212579 T40HN (human)): 320000 M⁻¹ s⁻¹
Substance: Phl p 5.0101 (natural protein)
